Reference: patent US20230348603A1 (VERSEAU THERAPEUTICS, published 2023)

T1: Cynomolgus Monkey VSIG4-L-His (cynomolgus monkey)
T1 construct: ECD with His tag; also called cyVSIG4-L; cyno VSIG4-L-His
T1 chain: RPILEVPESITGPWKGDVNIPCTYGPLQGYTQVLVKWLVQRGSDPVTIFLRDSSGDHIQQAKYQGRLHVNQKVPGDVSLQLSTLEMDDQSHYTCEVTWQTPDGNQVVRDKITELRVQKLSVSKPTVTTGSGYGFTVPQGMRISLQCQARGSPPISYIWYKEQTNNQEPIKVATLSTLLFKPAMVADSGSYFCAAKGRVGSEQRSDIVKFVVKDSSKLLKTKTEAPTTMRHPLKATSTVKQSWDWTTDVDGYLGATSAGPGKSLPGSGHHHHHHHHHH

T2: Human VSIG4-L-His (human, UniProt Q9Y279 20-283)
T2 construct: long isoform ECD with His tag; also called hVSIG4-L
T2 sequence: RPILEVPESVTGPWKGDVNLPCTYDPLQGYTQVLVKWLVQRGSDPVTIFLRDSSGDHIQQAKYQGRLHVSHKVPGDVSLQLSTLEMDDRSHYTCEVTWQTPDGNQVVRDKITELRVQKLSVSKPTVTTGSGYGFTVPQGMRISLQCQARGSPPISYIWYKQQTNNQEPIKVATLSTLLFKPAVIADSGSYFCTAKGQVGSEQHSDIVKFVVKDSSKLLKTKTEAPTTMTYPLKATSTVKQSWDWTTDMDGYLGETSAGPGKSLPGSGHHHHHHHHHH

B1: h12A12.E humanized IgG4 (S228P) kappa (antibody, V domains shown)
VH: QVQMVQSGAEVKKPGASVKVSCKASGYTFTNYWMHWVRQAPGQGLEWMGYINPSTGYTDYNQKFQGRVTMTADKSTSTAYMELSSLRSEDTAVYYCIRGSDYYGRDYWGQGTTVTVSS
VL: DIQMTQSPSSLSASVGDRVTITCQASQDISNYLNWYQQKPGKAPKLLIYYTSRLHSGVPSRFSGSGSGTDYTFTISSLQPEDIATYYCRQGNTLPWTFGGGTKLEIKR
B2: h12A12.A humanized IgG4 (S228P) kappa (antibody, V domains shown)
VH: QVQMVQSGAEVKKPGASVKVSCKASGYTFTNYWMHWVRQAPGQGLEWMGYINPSTGYTDYNQKFQGRVTMTADKSTSTAYMELSSLRSEDTAVYYCIRGSDYYGRDYWGQGTTVTVSS
VL: DIQMTQSPSSLSASVGDRVTITCQASQDISNYLNWYQQKPGKALKLLIYYTSRLHSGVPSRFSGSGSGTDYTFTISSLQPEDIATYFCRQGNTLPWTFGGGTKLEIKR
B3: h12A12.B humanized IgG4 (S228P) kappa (antibody, V domains shown)
VH: QVQMVQSGAEVKKPGASVKVSCKASGYTFTNYWMHWVRQAPGQGLEWMGYINPSTGYTDYNQKFQGRVTMTADKSTSTAYMELSSLRSEDTAVYYCIRGSDYYGRDYWGQGTTVTVSS
VL: DIQMTQSPSSLSASVGDRVTITCQASQDISNYLNWYQQKPGKALKLLIYYTSRLHTGVPSRFSGSGSGTDYTFTISSLQPEDIATYYCRQGNTLPWTFGGGTKLEIKR
B4: h12A12.G humanized IgG4 (S228P) kappa (antibody, V domains shown)
VH: QVQLVQSGAEVKKPGASVKVSCKASGYTFTNYWMHWVRQAPGQGLEWMGYINPSTGYTDYNQKFQGRVTMTADTSTSTVYMELSSLRSEDTAVYYCIRGSDYYGRDYWGQGTTVTVSS
VL: DIQMTQSPSSLSASVGDRVTITCQASQDISNYLNWYQQKPGKAPKLLIYYTSRLHSGVPSRFSGSGSGTDYTFTISSLQPEDIATYYCRQGNTLPWTFGGGTKLEIKR
B5: h12A12.F humanized IgG4 (S228P) kappa (antibody, V domains shown)
VH: QVQMVQSGSELKKPGASVKVSCKASGYTFTNYWMHWVRQAPGQGLEWIGYINPSTGYTDYNQGFTGRFVLSADKSSSTAYLQISSLKAEDTAVYYCIRGSDYYGRDYWGQGTTVTVSS
VL: DIQMTQSPSSLSASVGDRVTITCQASQDISNYLNWYQQKPGKAPKLLIYYTSRLHSGVPSRFSGSGSGTDYTFTISSLQPEDIATYYCRQGNTLPWTFGGGTKLEIKR
B6: h12A12.C humanized IgG4 (S228P) kappa (antibody, V domains shown)
VH: QVQMVQSGSELKKPGASVKVSCKASGYTFTNYWMHWVRQAPGQGLEWIGYINPSTGYTDYNQGFTGRFVLSADKSSSTAYLQISSLKAEDTAVYYCIRGSDYYGRDYWGQGTTVTVSS
VL: DIQMTQSPSSLSASVGDRVTITCQASQDISNYLNWYQQKPGKALKLLIYYTSRLHTGVPSRFSGSGSGTDYTFTISSLQPEDIATYYCRQGNTLPWTFGGGTKLEIKR
B7: h12A12.H humanized IgG4 (S228P) kappa (antibody, V domains shown)
VH: QVQLVQSGSELKKPGASVKVSCKASGYTFTNYWMHWVRQAPGQGLEWMGYINPSTGYTDYNQGFTGRFVFSADTSVSTAYLQISSLKAEDTAVYYCIRGSDYYGRDYWGQGTTVTVSS
VL: DIQMTQSPSSLSASVGDRVTITCQASQDISNYLNWYQQKPGKAPKLLIYYTSRLHSGVPSRFSGSGSGTDYTFTISSLQPEDIATYYCRQGNTLPWTFGGGTKLEIKR
B8: h12A12.D humanized IgG4 (S228P) kappa (antibody, V domains shown)
VH: QVQMVQSGSELKKPGASVKVSCKASGYTFTNYWMHWVRQAPGQGLEWMGYINPSTGYTDYNQGFTGRFVFSADKSVSTAYLQISSLKAEDTAVYYCIRGSDYYGRDYWGQGTTVTVSS
VL: EIVMTQSPATLSLSPGERATLSCRASQDISNYLNWYQQKPGQALRLLIYYTSRRHTGIPARFSGSGSGTDYTLTISSLEPEDFAVYYCRQGNTLPWTFGGGTKLEIKR
B9: h13H11.C humanized IgG4 (S228P) kappa (antibody, V domains shown)
VH: QIQLVQSGSELKKPGASVKVSCKASGYTFENFGMNWVRQAPGQGLEWMGWINTYTGEATYADGFTGRFVFSLDTSVSTAYLQISSLKAEDTAVYYCARDGGFRHFDVWGQGTTVTVSS
VL: DTQVTQSPSSLSASVGDRVTITCQTSTDIDDDMNWYQQKPGKAPKLLISEGNTLRTGVPSRFSSSGSGTDFTFTISSLQPEDIATYYCLQSDNLPLTFGGGTKLEIKR
B10: h13H11.A humanized IgG4 (S228P) kappa (antibody, V domains shown)
VH: QIQLVQSGSELKKPGASVKVSCKASGYTFENFGMNWVRQAPGQGLEWMGWINTYTGEATYADGFTGRFVFSLDTSVSTAYLQISSLKAEDTAVYYCARDGGFRHFDVWGQGTTVTVSS
VL: ETQVTQSPSSLSASVGDRVTITCQTSTDIDDDMNWYQQKPGKAPKLLISEGNTLRPGVPSRFSSSGYGTDFTFTISSLQPEDIATYYCLQSDNLPLTFGGGTKLEIKR
B11: h13H11.D humanized IgG4 (S228P) kappa (antibody, V domains shown)
VH: QIQLVQSGSELKKPGASVKVSCKASGYTFENFGMNWVRQAPGQGLEWMGWINTYTGEATYADGFTGRFVFSLDTSVSTAYLQISSLKAEDTAVYYCARDGGFRHFDVWGQGTTVTVSS
VL: DTQVTQSPSSLSASVGDRVTITCQTSTDISNYMNWYQQKPGKAPKLLISEGNTLRPGVPSRFSSSGSGTDFTFTISSLQPEDIATYYCLQSDNLPLTFGGGTKLEIKR
B12: h13H11.F humanized IgG4 (S228P) kappa (antibody, V domains shown)
VH: QIQLVQSGSELKKPGASVKVSCKASGYTFENFGMNWVRQAPGQGLEWMGWINTYTGEATYADDFKGRFVFSLDTSVSTAYLQISSLKAEDTAVYYCARDGGFRHFDVWGQGTTVTVSS
VL: ETQVTQSPSSLSASVGDRVTITCQTSTDIDDDMNWYQQKPGKAPKLLISEGNTLRPGVPSRFSSSGYGTDFTFTISSLQPEDIATYYCLQSDNLPLTFGGGTKLEIKR
B13: h13H11.G humanized IgG4 (S228P) kappa (antibody, V domains shown)
VH: QIQLVQSGSELKKPGASVKVSCKASGYTFENFGMNWVRQAPGQGLEWMGWINTYTGEATYADDFKGRFVFSLDTSVSTAYLQISSLKAEDTAVYYCARDGGFRHFDVWGQGTTVTVSS
VL: DTQVTQSPSSLSASVGDRVTITCQTSTDIDDDMNWYQQKPGKAPKLLISEGNTLRTGVPSRFSSSGSGTDFTFTISSLQPEDIATYYCLQSDNLPLTFGGGTKLEIKR
B14: h13H11.H humanized IgG4 (S228P) kappa (antibody, V domains shown)
VH: QIQLVQSGSELKKPGASVKVSCKASGYTFENFGMNWVRQAPGQGLEWMGWINTYTGEATYADDFKGRFVFSLDTSVSTAYLQISSLKAEDTAVYYCARDGGFRHFDVWGQGTTVTVSS
VL: DTQVTQSPSSLSASVGDRVTITCQTSTDISNYMNWYQQKPGKAPKLLISEGNTLRPGVPSRFSSSGSGTDFTFTISSLQPEDIATYYCLQSDNLPLTFGGGTKLEIKR
B15: h13H11.B humanized IgG4 (S228P) kappa (antibody, V domains shown)
VH: QIQLVQSGAEVKKPGASVKVSCKASGYTFENFGMNWVRQAPGQRLEWMGWINTYTGEATYADKFQGRVTFTLDTSASTAYMELSSLRSEDTAVYFCARDGGFRHFDVWGQGTTVTVSS
VL: ETQVTQSPSSLSASVGDRVTITCQTSTDIDDDMNWYQQKPGKAPKLLISEGNTLRPGVPSRFSSSGYGTDFTFTISSLQPEDIATYYCLQSDNLPLTFGGGTKLEIKR
B16: h13H11.E humanized IgG4 (S228P) kappa (antibody, V domains shown)
VH: QIQLVQSGAEVKKPGASVKVSCKASGYTFENFGMNWVRQAPGQRLEWMGWINTYTGEATYADKFQGRVTITLDTSASTAYMELSSLRSEDTAVYYCARDGGFRHFDVWGQGTTVTVSS
VL: DTQVTQSPSSLSASVGDRVTITCQTSTDISNYMNWYQQKPGKAPKLLISEGNTLRPGVPSRFSSSGSGTDFTFTISSLQPEDIATYYCLQSDNLPLTFGGGTKLEIKR
B17: h14C05.B humanized IgG4 (S228P) kappa (antibody, V domains shown)
VH: QVQLVQSGSELKKPGASVKVSCKASGYTFTNYGMNWVRQAPGQGLEWMGSINTYTGEATYADGFTGRFVFSLDTSVNTAYLQISSLKAEDTAVYYCARGDYYGRGTWFAYWGQGTLVTVSS
VL: ETQVTQSPSSLSASVGDRVTITCRASQDVSTAVAWYQQKPGKAPKLLIYSASYRYPGVPSRFSGSGSGTDFTLTISSLQPEDFATYYCQQDYSSPWTFGGGTKLEIKR
B18: h14C05.A humanized IgG4 (S228P) kappa (antibody, V domains shown)
VH: EVMLVQSGSELKKPGASVKVSCKASGYTFTNYGMNWVRQAPGQGLEWMGSINTYTGEATYADGFTGRFVFSLDTSANTAYLQISSLKAEDTAVYFCARGDYYGRGTWFAYWGQGTLVTVSS
VL: ETQVTQSPSSLSASVGDRVTITCRASQDVSTAVAWYQQKPGKAPKLLIYSASYRYPGVPSRFSGSGSGTDFTLTISSLQPEDFATYYCQQDYSSPWTFGGGTKLEIKR

Assays:
[1] = molecular target: T1, Cynomolgus Monkey VSIG4-L-His; assay: BLI, IgG on AHC sensor, antigen 100 nM
Experimental: (§1) The binding affinity of chimeric antibodies was determined by biolayer interferometry (BLI), using a ForteBio Octet® Red384 system. […] Biosensors were rehydrated prior to the assay in kinetics buffer for 10 minutes and then equilibrated in kinetics buffer for 60 seconds. Antibody was then immobilized for 300 seconds followed by a 120 second baseline wash in fresh kinetics buffer, 300 second analyte association, and 300 second dissociation in the same buffer wells as the baseline wash step. All assay steps occurred at 30° C. with an acquisition rate of 5.0 Hz
(§2) The binding affinity of humanized antibodies and the parental chimeric antibodies was determined by biolayer interferometry (BLI), using a ForteBio Octet® Red384 system, as described above.

Human VSIG4-L-His = molecular target: T2, Human VSIG4-L-His; assay: BLI, IgG on AHC sensor, antigen 100 nM
Experimental: as §1, §2

| Binder | KD relative to parental chimera [1] | KD relative to parental chimera (Human VSIG4-L-His) |
| --- | --- | --- |
| B1 | 0.6 fold | 0.6 fold |
| B2 | 1 fold | 0.7 fold |
| B3 | 0.7 fold | 0.6 fold |
| B4 | 1.1 fold | 0.7 fold |
| B5 | 0.4 fold | 0.4 fold |
| B6 | 0.5 fold | 0.5 fold |
| B7 | 1 fold | 0.8 fold |
| B8 | 1.2 fold | 1.1 fold |
| B9 | 3.7 fold | 1.2 fold |
| B10 | 1 fold | 2.6 fold |
| B11 | 1.7 fold | 0.8 fold |
| B12 | 1.1 fold | 1.8 fold |
| B13 | 0.9 fold | 1.2 fold |
| B14 | 0.9 fold |  |
| B15 | 0.9 fold | 2.5 fold |
| B16 | 1.1 fold | 1.4 fold |
| B17 | 0.7 fold | 0.7 fold |
| B18 | 0.7 fold | 0.8 fold |
